Data taken from patent publication US12648964B2, “Chimeric Tim receptors and uses thereof” (CERO THERAPEUTICS HOLDINGS, INC., priority 2020, dated 2026).
“Also recorded” adds a separate entry of the source. Read-outs that look alike come from different tables or passages of the source.

How the values were obtained:
Kuramochi cells [1] = conditions: 1.56 or 25 μM Niraparib, 48 hours, vs DMSO
Method: FIG. 7A: Flow cytometry measurement of surface PtdSer. Kuramochi cells were treated with 1.56 or 25 μM Niraparib or with equivalent volume of DMSO (control). 48 hours later samples were trypsinized and stained using a Tim4-Fc followed by a fluorescently-labeled secondary antibody to the Tim4-Fc. […] All data were collected via IncuCyte.
(§1) In ovarian tumors, poly (ADP-ribose) polymerase (PARP) inhibitors, such as Niraparib, are clinically approved drugs which target DNA damage response pathways. Responses are rarely complete, with relapse common after treatment. To induce Ptd-Ser exposure, BRCA-2 mutated Kuramochi cell line was treated with therapeutic doses of the PARP inhibitor Niraparib.

Kuramochi cells [2] = conditions: BRCA-2 mutated Kuramochi cell line
Method: as §1

phosphatidylserine = conditions: cited from earlier work; for binding at High PtdSer: high phosphatidylserine density; for binding at Low PtdSer: low phosphatidylserine density
E7 TCR-T cells [3] = assay: E7-specific T cell proliferation by CT Violet dye dilution after co-culture with E7 peptide-pulsed CER-T cells; assay type: cell-based; conditions: for stimulation / proliferation responses of E7-specific T cells: CER-T pulsed with E7 peptides, CT Violet dilution after 6 days
Method: FIG. 1A: a schematic of pCTX247 and pCTX1107 chimeric Tim4 receptors and pCTX1107 T cells pulsed with E7 peptides and co-cultured with E7-specific T cells to evaluate their antigen presentation capacity. FIG. 1B: E7-specific proliferation responses were measured by CT Violet dye dilution after 6 days in the presence of autologous CER-T (TLR containing or non-containing CERs) pulsed with E7 peptides. […] All data collected by FACS. Cell tracing show E7 TCR-T cells using an anti-mouse TCRb. E7 TCR-T cells were labeled with CT Violet at the time of co-culture.
Chimeric Tim4 receptor-T cells were tested to determine whether they can capture and present soluble antigens and trigger activation and proliferation of recombinant E7-restricted T cell clones in a co-culture system. First expression of Tim4 was confirmed on transduced CER T cells by flow cytometry. Tim4 binding domain-CD28 transmembrane-CD28 signaling domain-CD3z signaling domain (CTX247) and Tim4 binding domain-CD28 signaling domain-CD3z signaling domain-TLR2 signaling domain (CTX1107) were stained for Tim4 and EGFR, a transduction marker encoded on each vector. […] E7 TCRs proliferate in response to APCs pulsed with E7 peptide through MHC class I. For autologous APCs, CD4+ and CD8+ chimeric Tim4 receptor T cell products transduced with different Tim-4 chimeric receptors were pulsed with a pool of 15-mer peptides containing 11-mer overlaps derived from the E7 protein from HPV16 or vehicle. Chimeric Tim4 receptor T cells were pulsed at 37° C. for 4 hrs with E7 peptides and tested for their capacity to trigger E7-specific activation and proliferation. E7-TCR cell surface activation marker responses were evaluated by flow cytometry 24 hours following co-culture with chimeric Tim4 receptor-T cell products. After an additional 5 days of co-culture, proliferative responses were assessed by Cell Trace (CT) Violet dilution. […]

E7 TCR-T cells [4] = assay: E7 TCR-T cell activation markers CD25/CD69 after co-culture with E7 peptide-pulsed CER-T cells (flow cytometry); assay type: cell-based
Method: FIG. 2: T cells containing chimeric Tim4 receptors with a TLR intracellular signaling domain added to the CD3ζ signaling domain (and optionally a CD28 signaling domain) are strong stimulators of autologous E7-specific T cell responses. CER-T cells were pulsed with E7 peptide and tested for their capacity to trigger an autologous E7-specific T cell response. CD25, a T cell activation marker, was evaluated on E7 TCR-T cells, 24 hours after CER-T cells were pulsed with E7 peptides.
FIG. 3: T cells containing chimeric Tim4 receptors with a TLR intracellular signaling domain added to the CD3ζ signaling domain (and optionally a CD28 signaling domain) are strong stimulators of autologous E7-specific T cell responses. CER-T cells were pulsed with E7 peptide and tested for their capacity to trigger an autologous E7-specific T cell response. CD69, an early marker for T cell activation, was evaluated on E7 TCR-T cells, 24 hours after CER-T cells were pulsed with E7 peptides.
Chimeric Tim4 receptor-T cells were tested to determine whether they can capture and present soluble antigens and trigger activation and proliferation of recombinant E7-restricted T cell clones in a co-culture system. First expression of Tim4 was confirmed on transduced CER T cells by flow cytometry. Tim4 binding domain-CD28 transmembrane-CD28 signaling domain-CD3z signaling domain (CTX247) and Tim4 binding domain-CD28 signaling domain-CD3z signaling domain-TLR2 signaling domain (CTX1107) were stained for Tim4 and EGFR, a transduction marker encoded on each vector. […] E7 TCRs proliferate in response to APCs pulsed with E7 peptide through MHC class I. For autologous APCs, CD4+ and CD8+ chimeric Tim4 receptor T cell products transduced with different Tim-4 chimeric receptors were pulsed with a pool of 15-mer peptides containing 11-mer overlaps derived from the E7 protein from HPV16 or vehicle. Chimeric Tim4 receptor T cells were pulsed at 37° C. for 4 hrs with E7 peptides and tested for their capacity to trigger E7-specific activation and proliferation. E7-TCR cell surface activation marker responses were evaluated by flow cytometry 24 hours following co-culture with chimeric Tim4 receptor-T cell products. After an additional 5 days of co-culture, proliferative responses were assessed by Cell Trace (CT) Violet dilution.
A higher frequency of E7-TCR containing T cells expressed both activation markers 24 hours after co-culture (FIG. 2).

[5] = 24 hours after CER-T cells pulsed with E7 peptides

## NC(=O)c1cccc2cn(-c3ccc([C@@H]4CCCNC4)cc3)nc12 [Niraparib]
Kuramochi cells [1]
  surface PtdSer (membrane phospholipid symmetry): elicits changes in membrane phospholipid symmetry, in a dose dependent manner
Kuramochi cells [2]
  inhibition of growth of Kuramochi cells: effective in inhibiting growth

B1: Tim-1: T-cell immunoglobulin and mucin domain containing protein 1, phosphatidylserine receptor (protein, UniProt Q96D42 21-364, looked up)
Hepatitis A virus cellular …: SVKVGGEAGPSVTLPCHYSGAVTSMCWNRGSCSLFTCQNGIVWTNGTHVTYRKDTRYKLLGDLSRRDVSLTIENTAVSDSGVYCCRVEHRGWFNDMKITVSLEIVPPKVTTTPIVTTVPTVTTVRTSTTVPTTTTVPMTTVPTTTVPTTMSIPTTTTVLTTMTVSTTTSVPTTTSIPTTTSVPVTTTVSTFVPPMPLPRQNHEPVATSPSSPQPAETHPTTLQGAIRREPTSSPLYSYTTDGNDTVTESSDGLWNNNQTQLFLEHSLLTANTTKGIYAGVCISVLVLLALLGVIIAKKYFFKKEVQQLSVSFSSLQIKALQNAVEKEVQAEDNIYIENSLYATD
phosphatidylserine
  binding at High PtdSer: Strong
  binding at Low PtdSer: Moderate
phosphatidylserine; listed as Tim1 binding domain
  binding at Low PtdSer: binds more strongly to a lower phosphatidylserine density
phosphatidylserine; moderate phosphatidylserine density
  binding at Moderate PtdSer: Strong

B2: pCTX1107: Tim4 binding domain-CD28 signaling domain-CD3z signaling domain-TLR2 signaling domain (protein)
chain: ETVVTEVLGHRVTLPCLYSSWSHNSNSMCWGKDQCPYSGCKEALIRTDGMRVTSRKSAKYRLQGTIPRGDVSLTILNPSESDSGVYCCRIEVPGWFNDVKINVRLNLQRASTTTHRTATTTTRRTTTTSPTTTRQMTTTPAALPTTVVTTPDLTTGTPLQMTTIAVFTTANTCLSLTPSTLPEEATGLLTPEPSKEGPILTAESETVLPSDSWSSVESTSADTVLLTSKESKVWDLPSTSHVSMWKTSDSVSSPQPGASDTAVPEQNKTTKTGQMDGIPMSMKNEMPISQRSKRSRLLHSDYMNMTPRRPGPTRKHYQPYAPPRDFAAYRSRVKFSRSADAPAYQQGQNQLYNELNLGRREEYDVLDKRRGRDPEMGGKPRRKNPQEGLYNELQKDKMAEAYSEIGMKGERRRGKGHDGLYQGLSTATKDTYDALHMQALPPRHRFHGLWYMKMMWAWLQAKRKPRKAPSRNICYDAFVSYSERDAYWVENLMVQELENFNPPFKLCLHKRDFIPGKWIIDNIIDSIEKSHKTVFVLSENFVKSEWCKYELDFSHFRLFDENNDAAILILLEPIEKKAIPQRFCKLRKIMNTKTYLEWPMDEAQREGFWVNLRAAIKS
modifications: left off: large carriers
E7 TCR-T cells [3]
  stimulation / proliferation responses of E7-specific T cells: stimulatory for E7-specific T cells; also recorded: triggered proliferation responses of E7-specific TCRs
E7 TCR-T cells [3]; by 6 days, controls 8%
  percentage of dividing E7-TCR-T cells: 44%
E7 TCR-T cells [4]; [5]
  CD25 on E7 TCR-T cells (E7-specific activation): strong stimulator of E7-specific activation
  CD69 on E7 TCR-T cells (E7-specific activation): strong stimulator of E7-specific activation
E7 TCR-T cells [4]; 24 hours after co-culture, flow cytometry
  CD25 and CD69 upregulation (E7-specific activation): strong stimulatory of E7-specific activation
E7 TCR-T cells [4]; 24 hrs following co-culture, controls 23.1%
  E7 TCR-T cell surface activation markers CD25 and CD69 upregulated: 41.2%

B3: pCTX247: Tim4 binding domain-CD28 transmembrane-CD28 signaling domain-CD3z signaling domain (protein)
chain: ETVVTEVLGHRVTLPCLYSSWSHNSNSMCWGKDQCPYSGCKEALIRTDGMRVTSRKSAKYRLQGTIPRGDVSLTILNPSESDSGVYCCRIEVPGWFNDVKINVRLNLQRASTTTHRTATTTTRRTTTTSPTTTRQMTTTPAALPTTVVTTPDLTTGTPLQMTTIAVFTTANTCLSLTPSTLPEEATGLLTPEPSKEGPILTAESETVLPSDSWSSVESTSADTVLLTSKESKVWDLPSTSHVSMWKTSDSVSSPQPGASDTAVPEQNKTTKTGQMDGIPMSMKNEMPISQFWVLVVVGGVLACYSLLVTVAFIIFWVRSKRSRLLHSDYMNMTPRRPGPTRKHYQPYAPPRDFAAYRSRVKFSRSADAPAYQQGQNQLYNELNLGRREEYDVLDKRRGRDPEMGGKPRRKNPQEGLYNELQKDKMAEAYSEIGMKGERRRGKGHDGLYQGLSTATKDTYDALHMQALPPR
E7 TCR-T cells [3]
  stimulation / proliferation responses of E7-specific T cells: not stimulatory

B4: Tim-4: T-cell immunoglobulin and mucin domain containing protein 4, phosphatidylserine receptor (protein, UniProt Q96H15 25-378, looked up)
T-cell immunoglobulin and …: ETVVTEVLGHRVTLPCLYSSWSHNSNSMCWGKDQCPYSGCKEALIRTDGMRVTSRKSAKYRLQGTIPRGDVSLTILNPSESDSGVYCCRIEVPGWFNDVKINVRLNLQRASTTTHRTATTTTRRTTTTSPTTTRQMTTTPAALPTTVVTTPDLTTGTPLQMTTIAVFTTANTCLSLTPSTLPEEATGLLTPEPSKEGPILTAESETVLPSDSWSSVESTSADTVLLTSKESKVWDLPSTSHVSMWKTSDSVSSPQPGASDTAVPEQNKTTKTGQMDGIPMSMKNEMPISQLLMIIAPSLGFVLFALFVAFLLRGKLMETYCSQKHTRLDYIGDSKNVLNDVQHGREDEDGLFTL
phosphatidylserine
  Cooperativity: Yes
  binding at High PtdSer: Strong
  binding at Low PtdSer: Minimal
phosphatidylserine; listed as Tim4 binding domain
  binding at Low PtdSer: binds minimally
